Measured values taken from EP4796565A1, “SYNTHESIZED ANTI-CANCER LIPOPEPTIDE AND USE THEREOF” (Yongzhou Zhonggu Biotechnology Co., Ltd., priority 2023, dated 2025).

How the values were obtained:
[1] = target: Gem-associated protein 2 (Homo sapiens) (UniProt O14893)
[2] = target: Cullin-1 (Homo sapiens, UniProt Q13616)
[3] = target: Cleavage stimulation subunit 3 (Homo sapiens) (UniProt Q12996)
[4] = target: U6 snRNA-associated Sm-like protein LSm8 (Homo sapiens) (UniProt O95777)
[5] = target: Collagen alpha-1(V) chain (Homo sapiens, UniProt P20908)
Collagen alpha-1(V) chain, sequence (P20908 38-1605 limits assumed): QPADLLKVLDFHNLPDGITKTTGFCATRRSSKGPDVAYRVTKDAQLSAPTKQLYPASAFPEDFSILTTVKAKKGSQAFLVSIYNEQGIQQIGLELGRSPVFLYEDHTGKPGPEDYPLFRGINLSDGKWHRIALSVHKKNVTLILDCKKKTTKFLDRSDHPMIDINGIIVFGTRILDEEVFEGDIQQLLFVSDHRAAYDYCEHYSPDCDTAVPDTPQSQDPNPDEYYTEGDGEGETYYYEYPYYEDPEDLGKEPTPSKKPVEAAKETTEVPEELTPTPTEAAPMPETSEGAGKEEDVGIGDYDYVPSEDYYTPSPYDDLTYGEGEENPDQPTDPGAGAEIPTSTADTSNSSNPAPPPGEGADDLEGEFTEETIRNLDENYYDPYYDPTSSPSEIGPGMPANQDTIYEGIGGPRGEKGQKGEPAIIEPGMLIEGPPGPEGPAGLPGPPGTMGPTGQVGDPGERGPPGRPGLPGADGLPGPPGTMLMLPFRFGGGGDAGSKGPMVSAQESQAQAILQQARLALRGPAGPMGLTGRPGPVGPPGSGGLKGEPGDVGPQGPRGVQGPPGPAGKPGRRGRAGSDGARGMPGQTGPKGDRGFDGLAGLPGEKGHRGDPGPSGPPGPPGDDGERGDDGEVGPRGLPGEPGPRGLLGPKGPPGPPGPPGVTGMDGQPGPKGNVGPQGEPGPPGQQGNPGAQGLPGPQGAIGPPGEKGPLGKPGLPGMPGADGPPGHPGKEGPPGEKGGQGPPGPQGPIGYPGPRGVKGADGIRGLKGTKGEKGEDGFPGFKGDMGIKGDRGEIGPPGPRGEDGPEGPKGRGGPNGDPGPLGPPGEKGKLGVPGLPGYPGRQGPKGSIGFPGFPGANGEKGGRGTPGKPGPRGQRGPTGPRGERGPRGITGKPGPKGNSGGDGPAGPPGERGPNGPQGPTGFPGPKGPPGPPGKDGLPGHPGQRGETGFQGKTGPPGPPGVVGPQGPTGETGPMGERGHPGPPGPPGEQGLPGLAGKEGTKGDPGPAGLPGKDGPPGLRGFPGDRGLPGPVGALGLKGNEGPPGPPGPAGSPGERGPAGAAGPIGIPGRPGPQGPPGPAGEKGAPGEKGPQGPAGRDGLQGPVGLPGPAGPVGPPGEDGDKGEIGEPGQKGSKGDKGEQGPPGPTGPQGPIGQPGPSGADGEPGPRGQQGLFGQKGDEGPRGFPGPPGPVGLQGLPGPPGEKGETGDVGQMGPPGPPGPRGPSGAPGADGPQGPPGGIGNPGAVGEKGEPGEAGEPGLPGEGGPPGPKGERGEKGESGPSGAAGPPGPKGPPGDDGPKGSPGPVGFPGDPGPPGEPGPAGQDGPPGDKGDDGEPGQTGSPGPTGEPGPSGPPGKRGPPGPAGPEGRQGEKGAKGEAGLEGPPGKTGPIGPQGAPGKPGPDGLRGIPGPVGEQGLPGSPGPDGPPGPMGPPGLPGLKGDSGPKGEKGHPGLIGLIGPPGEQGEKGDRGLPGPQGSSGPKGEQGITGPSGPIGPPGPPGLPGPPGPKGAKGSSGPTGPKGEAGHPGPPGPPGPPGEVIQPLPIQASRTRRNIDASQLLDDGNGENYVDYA

[6] = target: Surfeit locus protein 2 (Homo sapiens, UniProt Q15527)
Surfeit locus protein 2, sequence (Q15527 whole entry): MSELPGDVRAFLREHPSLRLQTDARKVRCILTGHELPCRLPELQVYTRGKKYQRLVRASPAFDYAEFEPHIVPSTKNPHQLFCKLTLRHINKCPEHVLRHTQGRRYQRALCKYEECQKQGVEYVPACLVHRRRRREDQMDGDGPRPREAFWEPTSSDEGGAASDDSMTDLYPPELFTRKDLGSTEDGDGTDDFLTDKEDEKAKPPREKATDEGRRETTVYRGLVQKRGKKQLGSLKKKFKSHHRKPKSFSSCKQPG

[7] = target: Serine/arginine-rich splicing factor 8 (Homo sapiens) (UniProt Q9BRL6)
[8] = target: Replication protein A 32 kDa subunit (Homo sapiens, UniProt P15927)
[9] = target: Arginyl-tRNA-protein transferase 1 (Homo sapiens, UniProt O95260)
Arginyl-tRNA-protein transferase 1, sequence (O95260 whole entry): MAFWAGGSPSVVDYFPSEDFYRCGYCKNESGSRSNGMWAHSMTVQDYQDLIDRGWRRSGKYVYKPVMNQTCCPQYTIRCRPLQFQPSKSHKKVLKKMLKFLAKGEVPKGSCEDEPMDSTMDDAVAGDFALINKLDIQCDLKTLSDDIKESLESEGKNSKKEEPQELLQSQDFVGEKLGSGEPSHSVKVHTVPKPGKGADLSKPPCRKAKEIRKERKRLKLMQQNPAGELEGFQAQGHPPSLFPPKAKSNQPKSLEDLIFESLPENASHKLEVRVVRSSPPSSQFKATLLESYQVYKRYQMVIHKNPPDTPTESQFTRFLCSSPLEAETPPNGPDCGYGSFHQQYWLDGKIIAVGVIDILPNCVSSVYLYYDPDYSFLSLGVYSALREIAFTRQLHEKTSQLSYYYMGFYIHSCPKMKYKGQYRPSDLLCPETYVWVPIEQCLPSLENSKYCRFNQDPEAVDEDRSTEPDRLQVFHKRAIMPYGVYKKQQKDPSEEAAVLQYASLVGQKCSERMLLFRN

[10] = target: Calponin-3 (Homo sapiens) (UniProt Q15417)
[11] = target: Xaa-Pro aminopeptidase 1 (Homo sapiens, UniProt Q9NQW7)
Xaa-Pro aminopeptidase 1, sequence (Q9NQW7 2-623 limits assumed): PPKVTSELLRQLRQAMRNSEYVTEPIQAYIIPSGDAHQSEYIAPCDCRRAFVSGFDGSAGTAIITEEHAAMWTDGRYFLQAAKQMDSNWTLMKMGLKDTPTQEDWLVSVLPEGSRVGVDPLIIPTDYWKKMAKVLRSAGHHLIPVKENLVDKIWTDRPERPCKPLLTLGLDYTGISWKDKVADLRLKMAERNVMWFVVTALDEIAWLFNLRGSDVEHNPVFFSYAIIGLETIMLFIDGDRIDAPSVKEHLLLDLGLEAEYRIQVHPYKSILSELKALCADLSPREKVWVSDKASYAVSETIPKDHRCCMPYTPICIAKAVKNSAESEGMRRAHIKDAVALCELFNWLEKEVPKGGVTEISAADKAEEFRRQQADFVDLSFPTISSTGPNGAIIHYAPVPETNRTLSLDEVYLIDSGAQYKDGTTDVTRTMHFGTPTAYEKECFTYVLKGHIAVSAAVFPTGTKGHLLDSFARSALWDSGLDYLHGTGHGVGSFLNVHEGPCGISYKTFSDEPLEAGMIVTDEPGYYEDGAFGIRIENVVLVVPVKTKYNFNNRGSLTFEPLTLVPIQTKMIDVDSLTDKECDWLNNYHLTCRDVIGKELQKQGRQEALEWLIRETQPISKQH

[12] = target: High mobility group protein HMGI-C (Homo sapiens) (UniProt P52926)
High mobility group protein HMGI-C (Homo sapiens), sequence (P52926 2-109 limits assumed): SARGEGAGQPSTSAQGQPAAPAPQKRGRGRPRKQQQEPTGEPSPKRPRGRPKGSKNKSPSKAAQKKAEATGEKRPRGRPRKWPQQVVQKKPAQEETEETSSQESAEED

[13] = target: Histone H2A type 2-B (Homo sapiens, UniProt Q8IUE6)
[14] = target: recombinant CK2α; experiment: cell-based or functional assay
[15] = system: RR-805; experiment: Cell viability, Alamar Blue (benign cells); format: cell-based; conditions: RR-805, Benign, Renal primary fibroblasts; 48 hours of incubation
[16] = system: MRC-5; experiment: Cell viability, Alamar Blue (benign cells); format: cell-based; conditions: MRC-5, Benign, Lung fibroblasts; 48 hours of incubation
[17] = system: SK-MES1; experiment: Tumor cell viability, Alamar Blue; format: cell-based, human; conditions: SK-MES1, Malignant, NSCLC; 48 hours of incubation
Method: (§1) All human tumor cells used in the present application were obtained from the American Type Culture Collection (ATCC, Manassas, VA, USA) and cultured in RPMI 1640 medium (Gibco) supplemented with 10% (v/v) fetal bovine serum and gentamicin (50 µg/ml) at 37 °C in a 5% CO2 atmosphere. The effects of the lipopeptide and the CIGB-300 peptide on tumor cell viability were assessed using Alamar Blue reagent (Life Technologies, Carlsbad, CA, USA). Cells were seeded in flatbottom 96-well plates (2×10^5 cells/mL, 200 µL/well) and incubated for 24 hours, followed by treatment with the lipopeptide and the CIGB-300 peptide serially diluted from 100 to 3.12 µM at a 1:2 ratio. After 48 hours of incubation, 10% (v/v) Alamar Blue was added, and the cell suspension was incubated for an additional 4 hours. Fluorescence intensity in the microplates was measured, and IC50 values were calculated using CalcuSyn software (version 2.1) (Biosoft, Cambridge, UK).

[18] = system: Hep-2; experiment: Tumor cell viability, Alamar Blue; format: cell-based, human; conditions: Hep-2, Malignant, Laryngeal squamous cell carcinoma; 48 hours of incubation
Method: as §1

[19] = system: PC3; experiment: Tumor cell viability, Alamar Blue; format: cell-based, human; conditions: PC3, Malignant, Prostate cancer; 48 hours of incubation
Method: as §1

[20] = system: NCI-H82; experiment: Tumor cell viability, Alamar Blue; format: cell-based, human; conditions: NCI-H82, Malignant, SCLC; 48 hours of incubation
Method: as §1

[21] = system: U87; experiment: Tumor cell viability, Alamar Blue; format: cell-based, human; conditions: U87, Malignant, Glioblastoma; 48 hours of incubation
Method: as §1

[22] = system: NCI-H522; experiment: Tumor cell viability, Alamar Blue; format: cell-based, human; conditions: NCI-H522, Malignant, NSCLC; 48 hours of incubation
Method: as §1

[23] = system: SW948; experiment: Tumor cell viability, Alamar Blue; format: cell-based, human; conditions: SW948, Malignant, Colon adenocarcinoma; 48 hours of incubation
Method: as §1

[24] = system: NCI-H125; experiment: Tumor cell viability, Alamar Blue; format: cell-based, human; conditions: NCI-H125, Malignant, NSCLC; 48 hours of incubation
Method: as §1

[25] = system: HepG2; experiment: Tumor cell viability, Alamar Blue; format: cell-based, human; conditions: HepG2, Malignant, Hepatocellular carcinoma; 48 hours of incubation
Method: as §1

[26] = system: A549; experiment: Tumor cell viability, Alamar Blue; format: cell-based, human; conditions: A549, Malignant, NSCLC; 48 hours of incubation
Method: as §1

[27] = system: NCI-H460; experiment: Tumor cell viability, Alamar Blue; format: cell-based, human; conditions: NCI-H460, Malignant, NSCLC; 48 hours of incubation
Method: as §1

[28] = system: A431; experiment: Tumor cell viability, Alamar Blue; format: cell-based, human; conditions: A431, Malignant, Vulvar epidermoid carcinoma; 48 hours of incubation
Method: as §1

[29] = system: NCI-H226; experiment: Tumor cell viability, Alamar Blue; format: cell-based, human; conditions: NCI-H226, Malignant, NSCLC; 48 hours of incubation
Method: as §1

[30] = system: A549 cells; experiment: ROS levels (DHE reagent) and cell viability by flow cytometry; format: cell-based, human; conditions: for DHE reagent (Geometric mean) Mean: ROS level
Method: In addition to inducing higher levels of apoptosis compared to the CIGB-300 peptide, the lipopeptide also triggered greater reactive oxygen species (ROS) production in A549 cells after 2 hours of incubation with the antioxidant N-acetyl-L-cysteine (NAC), as analyzed by flow cytometry (Table 2). The elevated ROS levels were correlated with the stronger inhibitory effect of the lipopeptide on cell viability. Table 2: ROS levels induced by the lipopeptide and the CIGB-300 peptide in A549 cells

[31] = With NAC, 2 hours of incubation

Cleavage stimulation subunit 3 (Homo sapiens), sequence (Q12996 2-717 limits assumed): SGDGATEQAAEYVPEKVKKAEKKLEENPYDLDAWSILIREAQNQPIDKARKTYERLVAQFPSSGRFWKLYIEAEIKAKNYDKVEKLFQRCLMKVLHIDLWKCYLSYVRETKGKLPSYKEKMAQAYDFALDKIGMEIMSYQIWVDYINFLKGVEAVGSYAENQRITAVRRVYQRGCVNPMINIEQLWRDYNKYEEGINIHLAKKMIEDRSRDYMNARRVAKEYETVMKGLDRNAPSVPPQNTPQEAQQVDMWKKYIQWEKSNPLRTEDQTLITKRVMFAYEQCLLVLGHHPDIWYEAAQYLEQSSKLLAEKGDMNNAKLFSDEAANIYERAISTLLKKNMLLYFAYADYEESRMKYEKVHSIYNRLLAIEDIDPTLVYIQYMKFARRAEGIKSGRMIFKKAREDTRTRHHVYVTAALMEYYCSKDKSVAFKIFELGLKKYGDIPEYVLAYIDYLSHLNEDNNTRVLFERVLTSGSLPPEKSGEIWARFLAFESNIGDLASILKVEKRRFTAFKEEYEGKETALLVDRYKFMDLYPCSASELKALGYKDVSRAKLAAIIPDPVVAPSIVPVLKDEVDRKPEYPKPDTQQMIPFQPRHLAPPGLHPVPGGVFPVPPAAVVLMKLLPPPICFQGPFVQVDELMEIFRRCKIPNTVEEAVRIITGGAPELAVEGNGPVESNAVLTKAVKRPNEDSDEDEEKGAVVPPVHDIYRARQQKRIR
Cullin-1, sequence (Q13616 whole entry): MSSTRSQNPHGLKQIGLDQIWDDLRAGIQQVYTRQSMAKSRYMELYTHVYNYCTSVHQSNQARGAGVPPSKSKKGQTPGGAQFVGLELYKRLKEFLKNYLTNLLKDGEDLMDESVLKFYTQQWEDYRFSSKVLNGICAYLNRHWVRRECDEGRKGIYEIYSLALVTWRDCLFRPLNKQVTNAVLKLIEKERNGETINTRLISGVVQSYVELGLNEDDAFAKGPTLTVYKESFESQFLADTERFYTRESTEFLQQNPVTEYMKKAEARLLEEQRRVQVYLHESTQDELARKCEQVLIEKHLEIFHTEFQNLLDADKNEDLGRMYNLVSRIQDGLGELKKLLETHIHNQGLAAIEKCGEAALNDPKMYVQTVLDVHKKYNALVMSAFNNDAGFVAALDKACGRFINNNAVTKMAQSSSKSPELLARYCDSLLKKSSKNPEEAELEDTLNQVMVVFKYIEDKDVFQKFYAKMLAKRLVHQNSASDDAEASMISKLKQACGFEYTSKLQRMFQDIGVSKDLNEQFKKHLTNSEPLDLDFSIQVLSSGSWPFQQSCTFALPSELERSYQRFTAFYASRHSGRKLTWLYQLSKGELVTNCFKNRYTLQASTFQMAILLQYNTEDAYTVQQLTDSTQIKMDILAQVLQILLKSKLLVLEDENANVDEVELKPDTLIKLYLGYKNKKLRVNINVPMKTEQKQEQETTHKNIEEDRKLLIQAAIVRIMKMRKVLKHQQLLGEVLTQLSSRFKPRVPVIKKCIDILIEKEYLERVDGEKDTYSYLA
Gem-associated protein 2 (Homo sapiens), sequence (O14893 whole entry): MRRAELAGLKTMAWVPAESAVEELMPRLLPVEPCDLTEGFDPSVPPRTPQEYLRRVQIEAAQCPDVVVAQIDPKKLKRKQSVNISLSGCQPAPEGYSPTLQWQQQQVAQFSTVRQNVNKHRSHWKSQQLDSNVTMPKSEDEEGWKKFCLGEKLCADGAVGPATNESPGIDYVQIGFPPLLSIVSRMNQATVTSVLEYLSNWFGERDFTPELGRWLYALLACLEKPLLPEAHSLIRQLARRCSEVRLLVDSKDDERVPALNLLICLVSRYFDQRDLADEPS
U6 snRNA-associated Sm-like protein LSm8 (Homo sapiens), sequence (O95777 2-96 limits assumed): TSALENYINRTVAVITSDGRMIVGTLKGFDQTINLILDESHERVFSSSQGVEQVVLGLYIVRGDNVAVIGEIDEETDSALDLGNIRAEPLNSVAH

synthetic anti-cancer lipopeptide (decanoyl-CIGB-300)
Abundance ratio of lipopeptide/CIGB-300 [1]: 2.62 | Abundance ratio of lipopeptide/CIGB-300 [2]: 2.3 | Abundance ratio of lipopeptide/CIGB-300 [3]: 5.12 | Abundance ratio of lipopeptide/CIGB-300 [4]: 3.31 | Abundance ratio of lipopeptide/CIGB-300 [5]: 2.97 | Abundance ratio of lipopeptide/CIGB-300 [6]: 2.05 | Abundance ratio of lipopeptide/CIGB-300 [7]: 2.86 | Abundance ratio of lipopeptide/CIGB-300 [8]: 2.1 | Abundance ratio of lipopeptide/CIGB-300 [9]: 2.01 | Abundance ratio of lipopeptide/CIGB-300 [10]: 2.37 | Abundance ratio of lipopeptide/CIGB-300 [11]: 2.26 | Abundance ratio of lipopeptide/CIGB-300 [12]: 3.88 | Abundance ratio of lipopeptide/CIGB-300 [13]: 2.19

CIGB-300 peptide
CK2 enzyme activity (CPM x10^3) at 0.00 µM peptide (baseline without peptide) [14]: 170000 CPM | CK2 enzyme activity (CPM x10^3) at 0.097 µM peptide [14]: 171000 CPM | CK2 enzyme activity (CPM x10^3) at 0.195 µM peptide [14]: 169000 CPM | CK2 enzyme activity (CPM x10^3) at 0.39 µM peptide [14]: 162000 CPM | CK2 enzyme activity (CPM x10^3) at 0.781 µM peptide [14]: 158000 CPM | CK2 enzyme activity (CPM x10^3) at 1.56 µM peptide [14]: 109000 CPM | CK2 enzyme activity (CPM x10^3) at 3.125 µM peptide [14]: 92000 CPM | CK2 enzyme activity (CPM x10^3) at 6.25 µM peptide [14]: 61000 CPM | CK2 enzyme activity (CPM x10^3) at 12.5 µM peptide [14]: 31000 CPM | CK2 enzyme activity (CPM x10^3) at 25 µM peptide [14]: 19000 CPM | CK2 enzyme activity (CPM x10^3) at 50 µM peptide [14]: 4000 CPM

CSCC[C@@H]1NC(=O)[C@H](Cc2c[nH]c3ccccc23)NC(=O)[C@@H](NC(=O)CCNC(=O)[C@H](CCC(N)=O)NC(=O)[C@@H]2CCCN2C(=O)[C@@H]2CCCN2C(=O)[C@H](CCCNC(=N)N)NC(=O)[C@H](CCCNC(=N)N)NC(=O)[C@H](CCCNC(=N)N)NC(=O)[C@H](CCC(N)=O)NC(=O)[C@H](CCCNC(=N)N)NC(=O)[C@H](CCCNC(=N)N)NC(=O)[C@H](CCCCN)NC(=O)[C@H](CCCCN)NC(=O)[C@H](CCCNC(=N)N)NC(=O)CN)CSSC[C@@H](C(N)=O)NC(=O)[C@H]([C@@H](C)O)NC(=O)CNC(=O)[C@H](CC(C)C)NC(=O)[C@H](Cc2c[nH]cn2)NC(=O)[C@H](CCCNC(=N)N)NC(=O)[C@@H]2CCCN2C(=O)[C@H](CO)NC1=O [The CIGB-300 peptide, reference compound]
IC50 [15]: 230 ± 6 µM | IC50 [16]: 198 ± 8 µM | IC50 [17]: 150 ± 7 µM | IC50 [18]: 30.7 ± 2 µM | IC50 [19]: 170 ± 5 µM | IC50 [20]: 39.7 ± 11 µM | IC50 [21]: 154 ± 15 µM | IC50 [22]: 70 µM | IC50 [23]: 143.1 ± 1 µM | IC50 [24]: 76.3 ± 2 µM | IC50 [25]: 128 ± 44 µM | IC50 [26]: 180 ± 30 µM | IC50 [27]: 30 ± 9 µM | IC50 [28]: 90.7 ± 4 µM | IC50 [29]: 70.8 µM

OO [H2O2]
Cell viability (%) Mean [30, 31]: 94.9% | DHE reagent (Geometric mean) Mean [30, 31]: 4175 | Cell viability (%) Mean ([30]; Without NAC): 94.0% | DHE reagent (Geometric mean) Mean ([30]; Without NAC): 4335
